Experimental findings from patent publication US20040005659 are described below.

In the data set the target is T1, β-casein (Sigma, St Louis, Mo.), P02666.
T1 chain: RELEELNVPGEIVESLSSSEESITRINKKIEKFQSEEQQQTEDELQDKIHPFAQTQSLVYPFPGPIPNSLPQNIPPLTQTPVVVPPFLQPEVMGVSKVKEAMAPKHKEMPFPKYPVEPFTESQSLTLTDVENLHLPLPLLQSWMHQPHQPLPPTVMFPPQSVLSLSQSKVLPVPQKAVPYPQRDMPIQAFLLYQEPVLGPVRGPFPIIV

B1: PRSS11-L CDS-HAHIS (recombinant human PRSS11-L protease with a C-terminal HA6HIS epitope/affinity tag, expressed in baculovirus-infected Sf9 cells) (protein)
chain: MHLALPASAGLHQLSSPRYKFNFIADVVEKIAPAVVHIELFLRHPLFGRNVPLSSGSGFIMSEAGLIITNAHVVSSNSAAPGRQQLKVQLQNGDSYEATIKDIDKKSDIATIKIHPKKKLPVLLLGHSADLRPGEFVVAIGSPFALQNTVTTGIVSTAQREGRELGLRDSDMDYIQTDAIINYGNSGGPLVNLDGEVIGINTLKVTAGISFAIPSDRITRFLTEFQDKQIKDWKKRFIGIRMRTITPSLVDELKASNPDFPEVSSGIYVQEVAPNSPSQRGGIQDGDIIVKVNGRPLVDSSELQEAVLTESPLLLEVRRGNDDLLFSIAPEVVM
B1: the “cleavage of β-casein, SDS-PAGE with Coomassie Brilliant Blue staining” value is “The proteolytic activity of PRSS11-L was further confirmed by its cleavage of casein”.
